Assay results taken from patent US20210403565A1 (BIOATLA, published 2021).
Residue numbers refer to the chain shown, from its start.

T1: human CTLA4 expressed on the cell surface of CHO cells (human, UniProt P16410 36-223)
T1 construct: whole, on cells; also called CHO-huCTLA4; huCTLA4
T1 sequence (looked up): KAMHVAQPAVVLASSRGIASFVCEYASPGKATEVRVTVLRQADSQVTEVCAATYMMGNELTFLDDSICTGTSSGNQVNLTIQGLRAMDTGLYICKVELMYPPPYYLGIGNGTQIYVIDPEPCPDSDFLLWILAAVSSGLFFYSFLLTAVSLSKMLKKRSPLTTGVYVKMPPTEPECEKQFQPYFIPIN

T2: recombinant cynomolgus CTLA4 extracellular domain (cynomolgus, UniProt G7PL88 36-161)
T2 construct: extracellular domain; also called cynoCTLA-4; cynoCTLA4
T2 sequence: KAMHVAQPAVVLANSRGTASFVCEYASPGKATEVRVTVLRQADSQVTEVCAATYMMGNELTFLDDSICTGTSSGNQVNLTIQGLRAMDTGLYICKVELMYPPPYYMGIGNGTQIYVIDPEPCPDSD

T3: cynomolgus CTLA4 expressed on the cell surface of CHO cells (cynomolgus, UniProt G7PL88 36-223)
T3 construct: whole, on cells; also called CHO-cynoCTLA4
T3 sequence: T1 sequence (looked up) with S14N, I18T, L106M

B1: hB7-2 (hCD86) (ligand, human, UniProt P42081 24-247, looked up)
chain: APLKIQAYFNETADLPCQFANSQNQSLSELVVFWQDQENLVLNEVYLGKEKFDSVHSKYMGRTSFDSDSWTLRLHNLQIKDKGLYQCIIHHKKPTGMIRIHQMNSELSVLANFSQPEIVPISNITENVYINLTCSSIHGYPEPKKMSVLLRTKNSTIEYDGVMQKSQDNVTELYDVSISLSVSFPDVTSNMTIFCILETDKTRLLSSPFSIELEDPQPPPDHIP
B2: Ipilimumab (antibody, V domains shown)
VH: QVQLVESGGGVVQPGRSLRLSCAASGFTFSSYTMHWVRQAPGKGLEWVTFISYDGNNKYYADSVKGRFTISRDNSKNTLYLQMNSLRAEDTAIYYCARTGWLGPFDYWGQGTLVTVSS
VL: not shown

What was measured:
[1] = biological target: T1, human CTLA4 expressed on the cell …; test: FACS competition on CHO-huCTLA4: hB7-2 titrated against a fixed concentration of Ipilimumab, bound antibody detected, % competition; pH 6.0 per the text; no plateau reached (about 25 to 45 % at log 3.95); unit from the axis hB7-2 log[ng/mL]
[2] = biological target: T1, human CTLA4 expressed on the cell …; test: FACS competition on CHO-huCTLA4: hB7-2 titrated against a fixed concentration of BA-087-05-19, bound antibody detected, % competition; pH 6.0 per the text; no plateau reached (about 25 to 45 % at log 3.95); unit from the axis hB7-2 log[ng/mL]
[3] = biological target: T1, human CTLA4 expressed on the cell …; test: FACS competition on CHO-huCTLA4: hB7-2 titrated against a fixed concentration of Ipi Analog, bound antibody detected, % competition; pH 6.0 per the text; no plateau reached (about 25 to 45 % at log 3.95), fit marked ~; unit from the axis hB7-2 log[ng/mL]
[4] = biological target: T1, human CTLA4 expressed on the cell …; test: FACS competition on CHO-huCTLA4: hB7-2 titrated against a fixed concentration of BA-087-08-32, bound antibody detected, % competition; pH 6.0 per the text; no plateau reached (about 25 to 45 % at log 3.95); unit from the axis hB7-2 log[ng/mL]
[5] = biological target: T2, recombinant cynomolgus CTLA4 …; test: ELISA, immobilised cynoCTLA-4, pH 6.0, Jun. 27, 2017
[6] = biological target: T2, recombinant cynomolgus CTLA4 …; test: SPR, cynomolgus CTLA4 ECD immobilised, pH 6.0, equilibrium fit
[7] = biological target: T2, recombinant cynomolgus CTLA4 …; test: ELISA, immobilised cynoCTLA-4, pH 6.0, Jun. 19, 2017
[8] = biological target: T3, cynomolgus CTLA4 expressed on the cell …; test: FACS, CHO cells expressing cynomolgus CTLA4 (CHO-cynoCTLA-4), pH 7.4, MFI; no unit in the table, unit from the axis Log Antibodies [ng/ml]
[9] = biological target: T3, cynomolgus CTLA4 expressed on the cell …; test: FACS on CHO-cynoCTLA4 cells, pH 6.0, mean
Method: The amount of antibodies bound on the cells was quantified using anti-human IgG antibody conjugated to fluorophores. EC₅₀ values at pH 6.0 and 7.4 for binding to cells were calculated using the nonlinear fit (variable slope, four parameters) model built into GraphPad Prism software (version 7.03). The expression levels of human CTLA4 or cynomolgus CTLA4 on the surface of the CHO cells were determined using a BD QuantiBRITE™ PE kit.

[10] = biological target: T2, recombinant cynomolgus CTLA4 …; test: ELISA, immobilised cynoCTLA-4, pH 6.0, mean +/- SD

Row | Binder | EC50 [1] [µg/mL] | EC50 [2] [µg/mL] | EC50 [3] [µg/mL] | EC50 [4] [µg/mL] | EC50 [5] [µg/mL] | Kd [6] [nM] | EC50 [7] [µg/mL] | EC50 [8] [µg/mL] | EC50 [9] [µg/mL] | EC50 [10] [µg/mL]
1 | B1 | 7.19 | 3.73 | ~2.45 | 3.87 |  |  |  |  |  | 
2 | B2 |  |  |  |  | 0.021 | 6.58 | 0.00966 | 0.177 | 0.338 | 0.0153
